B1: CDS2 (parent)
chain: LIVVTQSHLVIHNLFEGMIWFIVP

Variants of: B1
Assay: protein stability index of a GFP-peptide fusion (GPS, HEK-293T) (PSI 1-6); higher = more stable
Conditions: c terminus: a fixed tail appended
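Also: lentivirally expressed fusions sorted by FACS into six bins by GFP to DsRed ratio, PSI derived from sequencing read proportions per bin multiplied by bin number.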

Variant	protein stability index
LIVVTQSHLVIHNLFEGKIWFIVP [M18K]	1.96
LIVVTQSHLVIHNLFEGRIWFIVP [M18R]	1.99
LIVVTQSHLVIHNLFEGPIWFIVP [M18P]	2.89
LIVVTQSHLVIHNLFEGFIWFIVP [M18F]	3.12
LIVVTQSHLVIHNLFEGCIWFIVP [M18C]	4.05
LIVVTQSHLVIHNLFEGVIWFIVP [M18V]	4.17
LIVVTQSHLVIHNLFEGEIWFIVP [M18E]	4.08
LIVVTQSHLVIHNLFEGYIWFIVP [M18Y]	3.67
LIVVTQSHLVIHNLFEGGIWFIVP [M18G]	2.85
LIVVTQSHLWIHNLFEGMIWFIVP [V10W]	2.46
LIVVTQSHLHIHNLFEGMIWFIVP [V10H]	2.88
LIVVTQSHLLIHNLFEGMIWFIVP [V10L]	1.96
LIVVTQSHLCIHNLFEGMIWFIVP [V10C]	2.23
LIVVTQSHLGIHNLFEGMIWFIVP [V10G]	1.83
LIVVTQSHLFIHNLFEGMIWFIVP [V10F]	3.01
LIVVTQSHLTIHNLFEGMIWFIVP [V10T]	2.15
LIYVTQSHLVIHNLFEGMIWFIVP [V3Y]	2.91
LIEVTQSHLVIHNLFEGMIWFIVP [V3E]	2.45
LILVTQSHLVIHNLFEGMIWFIVP [V3L]	2.57
LIFVTQSHLVIHNLFEGMIWFIVP [V3F]	3.18
LIVVTNSHLVIHNLFEGMIWFIVP [Q6N]	3.99
LIVVTDSHLVIHNLFEGMIWFIVP [Q6D]	4.07
LIVVTRSHLVIHNLFEGMIWFIVP [Q6R]	1.46
LIVVTISHLVIHNLFEGMIWFIVP [Q6I]	2.71

Variant	protein stability index
LIVVTCSHLVIHNLFEGMIWFIVP [Q6C]	2.42
LIVVTESHLVIHNLFEGMIWFIVP [Q6E]	2.59
LIVVTPSHLVIHNLFEGMIWFIVP [Q6P]	3.21
LIVVTQSHLVIHNLFEGMIRFIVP [W20R]	2.57
LIVVTQSHLVIHNLFEGMIQFIVP [W20Q]	4.66
LIVVTQSHLVIHNLFEGMICFIVP [W20C]	3.16
LIVVTQSHLVIHNLFEGMIFFIVP [W20F]	2.83
LIVVTQSHLVIHNLFEGMIMFIVP [W20M]	2.28
LIVVTQSHLVIHNLFEGMIPFIVP [W20P]	2.6
LIVVTQSHLVIHNLFEGMIDFIVP [W20D]	2.87
LIVVTQSHLVIHNLFEGMIGFIVP [W20G]	2.19
LIVVTQSHLVIHNLFEGMISFIVP [W20S]	3.64
LIVVMQSHLVIHNLFEGMIWFIVP [T5M]	3.04
LIVVEQSHLVIHNLFEGMIWFIVP [T5E]	2.95
LIVVYQSHLVIHNLFEGMIWFIVP [T5Y]	2.99
LIVVHQSHLVIHNLFEGMIWFIVP [T5H]	3.62
LIVVVQSHLVIHNLFEGMIWFIVP [T5V]	2.65
LIVVCQSHLVIHNLFEGMIWFIVP [T5C]	4.62
LIVVTQSHLVIHNQFEGMIWFIVP [L14Q]	2.25
LIVVTQSHLVIHNWFEGMIWFIVP [L14W]	2.72
LIVVTQSHLVIHNKFEGMIWFIVP [L14K]	3.69
LIVVTQSHLVIHNYFEGMIWFIVP [L14Y]	3.06
LIVVTQSHLVIHNIFEGMIWFIVP [L14I]	3.44
LIVVTQSHLVIHNTFEGMIWFIVP [L14T]	3.05

Variant	protein stability index
LIVVTQSHLVIHNAFEGMIWFIVP [L14A]	1.86
LIVVTQSHLVIHNLFEEMIWFIVP [G17E]	2.55
LIVVTQSHLVIHNLFEIMIWFIVP [G17I]	1.85
LIVVTQSHLVIHNLFEYMIWFIVP [G17Y]	1.68
LIVVTQSHLVIHNLFEVMIWFIVP [G17V]	3.48
LIVVTQSHLVIHNLFEDMIWFIVP [G17D]	2.93
LIVVTQSHLVIHNLFESMIWFIVP [G17S]	3.9
LIVVTQSHLVIHNLFEMMIWFIVP [G17M]	3.13
LIVVTQSHLVIHNLFELMIWFIVP [G17L]	3.83
LIVDTQSHLVIHNLFEGMIWFIVP [V4D]	3.18
LIVWTQSHLVIHNLFEGMIWFIVP [V4W]	1.83
LIVMTQSHLVIHNLFEGMIWFIVP [V4M]	3.42
LIVSTQSHLVIHNLFEGMIWFIVP [V4S]	4.44
LIVPTQSHLVIHNLFEGMIWFIVP [V4P]	2.36
LIVKTQSHLVIHNLFEGMIWFIVP [V4K]	4.3
LIVFTQSHLVIHNLFEGMIWFIVP [V4F]	2.09
LIVVTQNHLVIHNLFEGMIWFIVP [S7N]	2.81
LIVVTQRHLVIHNLFEGMIWFIVP [S7R]	4.35
LIVVTQHHLVIHNLFEGMIWFIVP [S7H]	2.31
LIVVTQKHLVIHNLFEGMIWFIVP [S7K]	2.27
LIVVTQFHLVIHNLFEGMIWFIVP [S7F]	2.19
LIVVTQSHLVGHNLFEGMIWFIVP [I11G]	2.27
LIVVTQSHLVSHNLFEGMIWFIVP [I11S]	3.42
LIVVTQSHLVVHNLFEGMIWFIVP [I11V]	2.52

Variant	protein stability index
LIVVTQSHLVMHNLFEGMIWFIVP [I11M]	2.84
LIVVTQSHLVCHNLFEGMIWFIVP [I11C]	3.04
LIVVTQSHLVHHNLFEGMIWFIVP [I11H]	1.57
LIVVTQSHLVDHNLFEGMIWFIVP [I11D]	3.58
LIVVTQSHLVKHNLFEGMIWFIVP [I11K]	4.09
LIVVTQSHLVWHNLFEGMIWFIVP [I11W]	1.04
LIVVTQSHLVIHNLFEGMMWFIVP [I19M]	2.95
LIVVTQSHLVIHNLFEGMKWFIVP [I19K]	2.41
LIVVTQSHLVIHNLFEGMAWFIVP [I19A]	2.65
LIVVTQSHLVIHNLFEGMIWFEVP [I22E]	3.14
LIVVTQSHLVIHNLFEGMIWFWVP [I22W]	3.42
LIVVTQSHLVIHNLFEGMIWFPVP [I22P]	2.56
LIVVTQSHLVIHNLFEGMIWFSVP [I22S]	3.28
LIVVTQSHLVIHNLFEGMIWFFVP [I22F]	2.83
LIVVTQSHLVIHNLFEGMIWFYVP [I22Y]	2.27
LIVVTQSHLVIHNLFEGMIWFQVP [I22Q]	1.69
LIVVTQSHLVIHNLFEGMIWFTVP [I22T]	3.85
LIVVTQSHLVIHNLFEGMIWFIVD [P24D]	2.06
LIVVTQSHLVIHNLFEGMIWFIVF [P24F]	2.52
LIVVTQSHLVIHNLFEGMIWFIVL [P24L]	2.19
LIVVTQSHLVIHNLFEGMIWFIVN [P24N]	2.81
LIVVTQSHLVIHNLFEGMIWFIVY [P24Y]	2.3

From the supplement of paper PMC10567573
